Reference: patent US20200230184A1

Molecular target: human ApoB100 (human) (UniProt P04114)
Assay: cell-based or functional assay

Sequence of UniProt P04114 (P04114 28-4563 limits assumed): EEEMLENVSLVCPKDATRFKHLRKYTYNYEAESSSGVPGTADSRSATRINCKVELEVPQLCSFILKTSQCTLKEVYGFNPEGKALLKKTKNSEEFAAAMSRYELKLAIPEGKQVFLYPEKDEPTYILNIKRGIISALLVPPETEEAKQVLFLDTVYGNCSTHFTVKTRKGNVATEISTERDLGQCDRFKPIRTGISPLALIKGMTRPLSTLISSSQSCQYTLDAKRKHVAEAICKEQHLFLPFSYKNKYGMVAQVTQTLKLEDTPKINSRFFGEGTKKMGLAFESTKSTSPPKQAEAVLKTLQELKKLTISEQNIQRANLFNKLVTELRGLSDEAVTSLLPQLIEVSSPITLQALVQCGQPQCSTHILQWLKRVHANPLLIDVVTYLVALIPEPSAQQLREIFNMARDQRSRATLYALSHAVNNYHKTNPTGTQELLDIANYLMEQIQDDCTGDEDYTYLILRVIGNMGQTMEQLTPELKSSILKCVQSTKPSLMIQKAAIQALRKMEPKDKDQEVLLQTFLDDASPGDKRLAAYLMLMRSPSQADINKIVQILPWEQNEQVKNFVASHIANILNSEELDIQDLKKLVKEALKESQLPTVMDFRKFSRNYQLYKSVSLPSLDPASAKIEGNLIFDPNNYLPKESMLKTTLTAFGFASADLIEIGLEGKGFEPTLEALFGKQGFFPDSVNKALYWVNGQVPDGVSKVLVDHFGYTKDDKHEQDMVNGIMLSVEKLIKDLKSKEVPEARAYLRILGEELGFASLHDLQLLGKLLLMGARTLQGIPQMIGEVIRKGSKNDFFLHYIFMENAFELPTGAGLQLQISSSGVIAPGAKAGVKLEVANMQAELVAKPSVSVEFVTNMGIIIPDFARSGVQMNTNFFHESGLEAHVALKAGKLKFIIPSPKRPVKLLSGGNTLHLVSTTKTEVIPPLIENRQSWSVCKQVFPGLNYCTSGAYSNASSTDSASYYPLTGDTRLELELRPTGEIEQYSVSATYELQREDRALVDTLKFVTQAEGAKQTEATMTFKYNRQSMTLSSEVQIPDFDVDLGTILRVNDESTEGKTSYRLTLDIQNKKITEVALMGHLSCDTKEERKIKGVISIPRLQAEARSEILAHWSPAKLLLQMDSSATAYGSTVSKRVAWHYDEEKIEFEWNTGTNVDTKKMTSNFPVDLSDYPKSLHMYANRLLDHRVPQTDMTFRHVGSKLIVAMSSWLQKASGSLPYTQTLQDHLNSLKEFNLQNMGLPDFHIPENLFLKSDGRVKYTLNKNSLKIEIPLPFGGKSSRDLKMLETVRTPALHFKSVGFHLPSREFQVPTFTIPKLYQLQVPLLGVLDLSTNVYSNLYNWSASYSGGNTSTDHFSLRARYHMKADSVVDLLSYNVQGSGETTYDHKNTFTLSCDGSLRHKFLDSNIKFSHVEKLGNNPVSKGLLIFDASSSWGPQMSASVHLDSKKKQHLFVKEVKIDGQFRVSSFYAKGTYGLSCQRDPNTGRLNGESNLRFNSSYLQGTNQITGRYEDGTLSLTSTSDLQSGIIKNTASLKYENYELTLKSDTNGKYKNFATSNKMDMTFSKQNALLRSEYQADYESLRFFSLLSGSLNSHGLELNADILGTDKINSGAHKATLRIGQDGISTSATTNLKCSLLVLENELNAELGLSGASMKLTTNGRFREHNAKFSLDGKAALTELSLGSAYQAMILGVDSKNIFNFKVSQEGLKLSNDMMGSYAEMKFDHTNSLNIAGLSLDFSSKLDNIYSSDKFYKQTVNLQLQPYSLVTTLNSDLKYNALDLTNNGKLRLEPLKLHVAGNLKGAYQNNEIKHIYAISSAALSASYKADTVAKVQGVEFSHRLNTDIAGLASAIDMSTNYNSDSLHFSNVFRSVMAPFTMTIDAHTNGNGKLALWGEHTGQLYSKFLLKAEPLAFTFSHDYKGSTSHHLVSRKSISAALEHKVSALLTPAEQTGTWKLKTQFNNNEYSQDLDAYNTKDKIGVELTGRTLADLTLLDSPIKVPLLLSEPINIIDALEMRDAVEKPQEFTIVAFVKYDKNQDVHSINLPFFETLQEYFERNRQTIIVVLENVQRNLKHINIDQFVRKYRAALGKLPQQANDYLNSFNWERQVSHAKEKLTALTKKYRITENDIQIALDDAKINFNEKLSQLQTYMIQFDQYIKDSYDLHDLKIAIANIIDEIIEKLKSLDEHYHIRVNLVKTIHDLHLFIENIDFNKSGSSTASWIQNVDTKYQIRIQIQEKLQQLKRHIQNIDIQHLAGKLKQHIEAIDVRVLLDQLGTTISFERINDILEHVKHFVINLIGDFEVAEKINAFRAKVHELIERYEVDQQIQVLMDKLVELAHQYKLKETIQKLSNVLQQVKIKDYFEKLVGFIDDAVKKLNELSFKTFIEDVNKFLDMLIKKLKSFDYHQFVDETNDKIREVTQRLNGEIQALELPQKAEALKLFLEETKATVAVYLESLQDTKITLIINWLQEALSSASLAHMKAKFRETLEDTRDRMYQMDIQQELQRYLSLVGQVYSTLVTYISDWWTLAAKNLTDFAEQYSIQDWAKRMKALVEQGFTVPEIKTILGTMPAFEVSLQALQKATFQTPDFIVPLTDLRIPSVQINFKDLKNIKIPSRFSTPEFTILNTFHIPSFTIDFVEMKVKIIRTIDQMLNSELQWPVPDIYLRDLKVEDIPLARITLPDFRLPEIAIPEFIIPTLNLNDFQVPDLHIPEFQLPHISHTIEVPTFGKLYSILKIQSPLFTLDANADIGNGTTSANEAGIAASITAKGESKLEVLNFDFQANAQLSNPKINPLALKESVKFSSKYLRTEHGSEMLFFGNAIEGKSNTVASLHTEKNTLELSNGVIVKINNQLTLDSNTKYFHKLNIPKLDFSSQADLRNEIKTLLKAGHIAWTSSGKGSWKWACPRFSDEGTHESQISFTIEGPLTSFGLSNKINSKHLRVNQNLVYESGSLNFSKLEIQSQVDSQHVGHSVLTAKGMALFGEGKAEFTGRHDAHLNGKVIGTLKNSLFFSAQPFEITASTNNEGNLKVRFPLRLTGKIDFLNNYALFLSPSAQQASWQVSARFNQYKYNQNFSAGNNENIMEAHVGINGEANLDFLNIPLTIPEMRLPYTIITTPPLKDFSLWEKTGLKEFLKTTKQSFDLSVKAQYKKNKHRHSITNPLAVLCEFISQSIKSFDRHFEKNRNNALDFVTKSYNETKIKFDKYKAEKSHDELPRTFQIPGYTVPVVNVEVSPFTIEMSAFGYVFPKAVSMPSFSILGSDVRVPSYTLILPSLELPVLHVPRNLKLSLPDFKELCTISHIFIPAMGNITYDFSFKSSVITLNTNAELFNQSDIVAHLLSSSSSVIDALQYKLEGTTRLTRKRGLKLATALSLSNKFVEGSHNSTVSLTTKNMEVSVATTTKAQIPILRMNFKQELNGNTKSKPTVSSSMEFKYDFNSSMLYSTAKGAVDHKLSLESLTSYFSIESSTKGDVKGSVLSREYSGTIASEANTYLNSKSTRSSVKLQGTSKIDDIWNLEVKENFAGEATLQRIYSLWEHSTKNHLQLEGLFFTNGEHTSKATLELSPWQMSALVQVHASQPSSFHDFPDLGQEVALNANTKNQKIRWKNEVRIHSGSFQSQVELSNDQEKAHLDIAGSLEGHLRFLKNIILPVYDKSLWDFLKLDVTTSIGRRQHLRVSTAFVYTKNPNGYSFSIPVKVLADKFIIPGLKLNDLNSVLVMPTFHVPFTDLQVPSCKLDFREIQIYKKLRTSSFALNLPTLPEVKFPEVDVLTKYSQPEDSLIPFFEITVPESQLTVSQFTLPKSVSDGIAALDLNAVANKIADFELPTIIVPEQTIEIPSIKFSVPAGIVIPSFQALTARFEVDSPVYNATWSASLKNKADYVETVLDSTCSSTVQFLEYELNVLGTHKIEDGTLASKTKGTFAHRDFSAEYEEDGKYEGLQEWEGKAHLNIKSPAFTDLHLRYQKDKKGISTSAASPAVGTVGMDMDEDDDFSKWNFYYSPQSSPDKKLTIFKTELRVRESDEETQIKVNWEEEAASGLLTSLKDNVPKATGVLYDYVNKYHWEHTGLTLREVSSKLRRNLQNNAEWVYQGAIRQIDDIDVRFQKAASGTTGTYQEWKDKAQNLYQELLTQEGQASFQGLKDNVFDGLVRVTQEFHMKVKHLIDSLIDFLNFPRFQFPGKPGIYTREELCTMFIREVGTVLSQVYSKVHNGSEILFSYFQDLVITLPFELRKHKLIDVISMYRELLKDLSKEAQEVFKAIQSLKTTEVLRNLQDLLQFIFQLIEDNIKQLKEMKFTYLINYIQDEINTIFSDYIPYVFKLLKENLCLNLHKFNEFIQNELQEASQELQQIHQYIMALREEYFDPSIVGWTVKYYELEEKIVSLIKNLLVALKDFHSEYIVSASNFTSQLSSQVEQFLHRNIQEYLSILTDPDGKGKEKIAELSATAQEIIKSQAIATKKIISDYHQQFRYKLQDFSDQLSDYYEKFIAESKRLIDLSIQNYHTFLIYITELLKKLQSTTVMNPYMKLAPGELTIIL

- reduction of serum cholesterol in LAHB mice after AAV8.TBG.hLDLR (% reduction of serum cholesterol): 30
Substance: human low density lipoprotein receptor (hLDLR) (from UniProt P01130 22-860)
